# Measured values taken from IntAct's records for PubMed 31515488.
# B1: Pyridine nucleotide-disulfide oxidoreductase domain-containing protein 1 (Homo sapiens), Q8WU10 (parent)
# chain: MEAARPPPTAGKFVVVGGGIAGVTCAEQLATHFPSEDILLVTASPVIKAVTNFKQISKILEEFDVEEQSSTMLGKRFPNIKVIESGVKQLKSEEHCIVTEDGNQHVYKKLCLCAGAKPKLICEGNPYVLGIRDTDSAQEFQKQLTKAKRIMIIGNGGIALELVYEIEGCEVIWAIKDKAIGNTFFDAGAAEFLTSKLIAEKSEAKIAHKRTRYTTEGRKKEARSKSKADNVGSALGPDWHEGLNLKGTKEFSHKIHLETMCEVKKIYLQDEFRILKKKSFTFPRDHKSVTADTEMWPVYVELTNEKIYGCDFIVSATGVTPNVEPFLHGNSFDLGEDGGLKVDDHMHTSLPDIYAAGDICTTSWQLSPVWQQMRLWTQARQMGWYAAKCMAAASSGDSIDMDFSFELFAHVTKFFNYKVVLLGKYNAQGLGSDHELMLRCTKGREYIKVVMQNGRMMGAVLIGETDLEETFENLILNQMNLSSYGEDLLDPNIDIEDYFD
# partner: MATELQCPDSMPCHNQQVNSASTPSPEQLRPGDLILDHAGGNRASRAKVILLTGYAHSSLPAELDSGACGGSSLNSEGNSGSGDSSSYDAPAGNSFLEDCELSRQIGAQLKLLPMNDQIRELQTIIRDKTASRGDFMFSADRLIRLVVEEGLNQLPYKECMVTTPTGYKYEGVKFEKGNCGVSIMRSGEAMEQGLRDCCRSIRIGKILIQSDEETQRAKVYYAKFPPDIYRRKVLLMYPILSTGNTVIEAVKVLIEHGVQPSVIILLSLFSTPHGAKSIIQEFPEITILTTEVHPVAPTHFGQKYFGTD
# B2: Microtubule-associated tumor suppressor candidate 2 (Homo sapiens), Q5JR59-3 (parent)
# chain: MGHCCCKPYNCLQCLDKTNESALVKEKELSIELANIRDEVAFHTAKCEKLQKEKEELERRFEDEVKRLGWQQQAELQELEERLQLQFEAEMARLQEEHGDQLLSIRCQHQEQVEDLTASHDAALLEMENNHTVAITILQDDHDHKVQELMSTHELEKKELEENFEKLRLSLQDQVDTLTFQSQSLRDRARRFEEALRKNTEEQLEIALAPYQHLEEDMKSLKQVLEMKNQQIHEQEKKILELEKLAEKNIILEEKIQVLQQQNEDLKARIDQNTVVTRQLSEENANLQEYVEKETQEKKRLSRTNEELLWKLQTGDPTSPIKLSPTSPVYRGSSSGPSSPARVSTTPR
# partner: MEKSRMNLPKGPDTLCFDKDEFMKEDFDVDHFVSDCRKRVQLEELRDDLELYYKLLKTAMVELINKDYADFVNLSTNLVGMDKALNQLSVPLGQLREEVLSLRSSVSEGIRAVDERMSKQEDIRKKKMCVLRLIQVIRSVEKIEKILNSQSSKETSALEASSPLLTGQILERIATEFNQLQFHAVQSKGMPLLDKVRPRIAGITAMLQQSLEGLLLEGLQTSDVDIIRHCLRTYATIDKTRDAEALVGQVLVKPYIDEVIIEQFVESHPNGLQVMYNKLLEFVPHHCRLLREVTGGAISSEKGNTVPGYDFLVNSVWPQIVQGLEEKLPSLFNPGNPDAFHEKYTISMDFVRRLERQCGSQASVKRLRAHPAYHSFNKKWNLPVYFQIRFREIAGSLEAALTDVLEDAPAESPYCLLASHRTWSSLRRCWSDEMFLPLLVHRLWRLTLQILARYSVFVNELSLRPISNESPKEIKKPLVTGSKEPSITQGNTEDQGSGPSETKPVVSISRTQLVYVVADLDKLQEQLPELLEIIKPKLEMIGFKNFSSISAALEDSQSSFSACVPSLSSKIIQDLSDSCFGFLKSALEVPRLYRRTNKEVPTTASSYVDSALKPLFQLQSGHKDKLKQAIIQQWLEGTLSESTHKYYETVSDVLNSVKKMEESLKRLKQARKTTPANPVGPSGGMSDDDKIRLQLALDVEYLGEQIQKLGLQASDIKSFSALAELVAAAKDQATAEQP
# B3: Protein phosphatase 1 regulatory inhibitor subunit 16B (Homo sapiens), Q96T49 (parent)
# chain: MASHVDLLTELQLLEKVPTLERLRAAQKRRAQQLKKWAQYEQDLQHRKRKHERKRSTGGRRKKVSFEASVALLEASLRNDAEEVRYFLKNKVSPDLCNEDGLTALHQCCIDNFEEIVKLLLSHGANVNAKDNELWTPLHAAATCGHINLVKILVQYGADLLAVNSDGNMPYDLCEDEPTLDVIETCMAYQGITQEKINEMRVAPEQQMIADIHCMIAAGQDLDWIDAQGATLLHIAGANGYLRAAELLLDHGVRVDVKDWDGWEPLHAAAFWGQMQMAELLVSHGASLSARTSMDEMPIDLCEEEEFKVLLLELKHKHDVIMKSQLRHKSSLSRRTSSAGSRGKVVRRASLSDRTNLYRKEYEGEAILWQRSAAEDQRTSTYNGDIRETRTDQENKDPNPRLEKPVLLSEFPTKIPRGELDMPVENGLRAPVSAYQYALANGDVWKVHEVPDYSMAYGNPGVADATPPWSSYKEQSPQTLLELKRQRAAAKLLSHPFLSTHLGSSMARTGESSSEGKAPLIGGRTSPYSSNGTSVYYTVTSGDPPLLKFKAPIEEMEEKVHGCCRIS
# partner: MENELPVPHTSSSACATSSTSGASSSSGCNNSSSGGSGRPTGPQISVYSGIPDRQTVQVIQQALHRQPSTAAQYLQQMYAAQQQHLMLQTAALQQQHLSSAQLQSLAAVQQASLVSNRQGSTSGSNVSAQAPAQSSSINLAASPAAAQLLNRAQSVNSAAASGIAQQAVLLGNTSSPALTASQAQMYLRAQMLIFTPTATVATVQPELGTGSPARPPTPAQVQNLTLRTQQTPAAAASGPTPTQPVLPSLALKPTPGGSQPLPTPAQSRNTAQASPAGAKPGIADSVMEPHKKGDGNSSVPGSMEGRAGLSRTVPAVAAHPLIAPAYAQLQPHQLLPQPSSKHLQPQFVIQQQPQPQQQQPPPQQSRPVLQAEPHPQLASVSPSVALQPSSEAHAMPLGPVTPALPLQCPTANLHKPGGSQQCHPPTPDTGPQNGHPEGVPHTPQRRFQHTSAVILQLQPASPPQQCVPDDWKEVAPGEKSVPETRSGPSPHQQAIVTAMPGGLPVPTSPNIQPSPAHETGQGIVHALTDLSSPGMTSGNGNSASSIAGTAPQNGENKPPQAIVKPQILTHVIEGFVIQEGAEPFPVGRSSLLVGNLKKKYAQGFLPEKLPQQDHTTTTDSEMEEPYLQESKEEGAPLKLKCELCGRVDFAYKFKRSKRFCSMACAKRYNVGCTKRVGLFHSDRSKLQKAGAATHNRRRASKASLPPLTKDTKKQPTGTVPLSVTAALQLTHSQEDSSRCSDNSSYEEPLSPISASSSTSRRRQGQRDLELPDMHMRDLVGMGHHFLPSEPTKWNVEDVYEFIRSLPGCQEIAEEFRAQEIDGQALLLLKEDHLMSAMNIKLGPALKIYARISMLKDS
# B4: Homeobox protein VENTX (Homo sapiens), O95231 (parent)
# chain: MRLSSSPPRGPQQLSSFGSVDWLSQSSCSGPTHTPRPADFSLGSLPGPGQTSGAREPPQAVSIKEAAGSSNLPAPERTMAGLSKEPNTLRAPRVRTAFTMEQVRTLEGVFQHHQYLSPLERKRLAREMQLSEVQIKTWFQNRRMKHKRQMQDPQLHSPFSGSLHAPPAFYSTSSGLANGLQLLCPWAPLSGPQALMLPPGSFWGLCQVAQEALASAGASCCGQPLASHPPTPGRPSLGPALSTGPRGLCAMPQTGDAF
# partner: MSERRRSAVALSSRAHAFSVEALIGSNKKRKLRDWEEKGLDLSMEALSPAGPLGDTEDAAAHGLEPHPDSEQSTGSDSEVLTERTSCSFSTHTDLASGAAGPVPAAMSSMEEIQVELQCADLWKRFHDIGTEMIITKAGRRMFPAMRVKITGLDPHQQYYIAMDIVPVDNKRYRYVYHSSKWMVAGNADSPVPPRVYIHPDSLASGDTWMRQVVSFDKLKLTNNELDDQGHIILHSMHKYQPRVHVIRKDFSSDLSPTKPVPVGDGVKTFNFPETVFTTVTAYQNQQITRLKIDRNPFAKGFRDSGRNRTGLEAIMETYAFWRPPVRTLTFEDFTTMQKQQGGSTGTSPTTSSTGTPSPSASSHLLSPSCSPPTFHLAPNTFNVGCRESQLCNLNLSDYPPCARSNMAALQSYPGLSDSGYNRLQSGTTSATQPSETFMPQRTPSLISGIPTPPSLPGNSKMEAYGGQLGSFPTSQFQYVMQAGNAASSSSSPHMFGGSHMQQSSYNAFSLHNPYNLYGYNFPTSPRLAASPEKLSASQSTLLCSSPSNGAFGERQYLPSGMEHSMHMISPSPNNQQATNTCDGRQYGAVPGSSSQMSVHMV
# Variants of: B1
# Conditions: with upp_human UPRT
row,Variant,effect of a mutation on the interaction
1,R374K,with no effect

# Variants of: B2
# Conditions: with cog2_human COG2, Q14746
row,Variant,effect of a mutation on the interaction
1,A89V,with no effect

# Variants of: B3
# Conditions: with phc2_human PHC2, Q8IXK0
row,Variant,effect of a mutation on the interaction
1,P519S,with no effect

# Variants of: B4
# Conditions: with tbx15_human TBX15, Q96SF7
row,Variant,effect of a mutation on the interaction
1,L42P,with no effect
2,M251V,with no effect
3,A226E,with no effect
